One data set concerns the target T1, NAT16 (HisAT) (Homo sapiens, UniProt Q8N8M0).
T1 construct: full length (369 aa), C-terminal 6xHis tag kept, codon-optimised, pFastBac1, Sf9 insect cells
T1 sequence (Q8N8M0 1-369): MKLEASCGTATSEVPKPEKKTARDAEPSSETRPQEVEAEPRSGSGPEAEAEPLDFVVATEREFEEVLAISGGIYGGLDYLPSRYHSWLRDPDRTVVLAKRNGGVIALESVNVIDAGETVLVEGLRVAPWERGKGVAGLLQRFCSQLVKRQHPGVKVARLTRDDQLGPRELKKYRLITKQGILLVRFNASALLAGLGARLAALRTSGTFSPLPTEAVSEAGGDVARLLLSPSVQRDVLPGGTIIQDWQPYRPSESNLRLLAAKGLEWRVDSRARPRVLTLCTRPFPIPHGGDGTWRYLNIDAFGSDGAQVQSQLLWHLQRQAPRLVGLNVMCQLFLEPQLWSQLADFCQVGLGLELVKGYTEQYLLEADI
Description: DTNB real-time assay, Michaelis-Menten fit. Format: biochemical. Particulars: 50 µM Ac-CoA; 50 mM Na-phosphate pH 7.5, 37 °C.

Substrate in data set [1]: CC(=O)SCCNC(=O)CCNC(=O)[C@H](O)C(C)(C)COP(=O)(O)OP(=O)(O)OC[C@H]1O[C@@H](n2cnc3c(N)ncnc32)[C@H](O)[C@@H]1OP(=O)(O)O
In words: DTNB real-time assay, initial rates, ternary complex model, secondary plots. It is filed as biochemical, Homo sapiens. Particulars: varied with L-histidine, 50 mM Na-phosphate pH 7.5, 100 mM NaCl, 1 mM EDTA, 37 °C. The text has this:
(§1) DTNB real-time assay, initial rates, ternary complex model, secondary plots on NAT16 (HisAT)

Substrate in data set [2]: N[C@@H](Cc1c[nH]cn1)C(=O)O
The data set is described as above. It is filed as biochemical, Homo sapiens. Conditions: varied with Ac-CoA, 50 mM Na-phosphate pH 7.5, 100 mM NaCl, 1 mM EDTA, 37 °C.
Excerpt: as §1

In the case of `N=C(N)NCCC[C@H](N)C(=O)O` [arginine], the “apparent KM” value on NAT16 (HisAT) was “determined the apparent kcat and KM with arginine and lysine”.
As to `NCCCC[C@H](N)C(=O)O` [lysine], the “apparent KM” value at NAT16 (HisAT) was “determined the apparent kcat and KM with arginine and lysine”.

B1: NAT16 (HisAT) (Homo sapiens) (protein)
chain: MKLEASCGTATSEVPKPEKKTARDAEPSSETRPQEVEAEPRSGSGPEAEAEPLDFVVATEREFEEVLAISGGIYGGLDYLPSRYHSWLRDPDRTVVLAKRNGGVIALESVNVIDAGETVLVEGLRVAPWERGKGVAGLLQRFCSQLVKRQHPGVKVARLTRDDQLGPRELKKYRLITKQGILLVRFNASALLAGLGARLAALRTSGTFSPLPTEAVSEAGGDVARLLLSPSVQRDVLPGGTIIQDWQPYRPSESNLRLLAAKGLEWRVDSRARPRVLTLCTRPFPIPHGGDGTWRYLNIDAFGSDGAQVQSQLLWHLQRQAPRLVGLNVMCQLFLEPQLWSQLADFCQVGLGLELVKGYTEQYLLEADI
notes: full length (369 aa), C-terminal 6xHis tag kept, codon-optimised, pFastBac1, Sf9 insect cells
As a reminder, the Km is the concentration of substrate that gives half-maximal velocity. For orientation: kcat means the maximal rate divided by the concentration of active sites. The kcat/Km is the turnover number divided by the Michaelis constant. For B1, in data set [1], the Km is on record as 19.8 ± 4.5 µM, the kcat worked out at 36.5 ± 4.6 s⁻¹ and the kcat/Km is 1.9e+06 M⁻¹ s⁻¹. Moreover, in data set [2], the Km is recorded as 215 ± 53 µM, the catalytic constant (kcat) is 36.5 ± 4.6 s⁻¹ and the kcat/Km is 177000 M⁻¹ s⁻¹.
